The values below come from IntAct's records for PubMed 10228159.

Sequences and labels used below:
B1: Protein E7 (Human papillomavirus type 16), P03129 (parent)
chain: MHGDTPTLHEYMLDLQPETTDLYCYEQLNDSSEEEDEIDGPAGQAEPDRAHYNIVTFCCKCDSTLRLCVQSTHVDIRTLEDLLMGTLGIVCPICSQKP
B2: Protein E7 (Human papillomavirus type 16), P03129 (parent)
chain: B1 chain
partner: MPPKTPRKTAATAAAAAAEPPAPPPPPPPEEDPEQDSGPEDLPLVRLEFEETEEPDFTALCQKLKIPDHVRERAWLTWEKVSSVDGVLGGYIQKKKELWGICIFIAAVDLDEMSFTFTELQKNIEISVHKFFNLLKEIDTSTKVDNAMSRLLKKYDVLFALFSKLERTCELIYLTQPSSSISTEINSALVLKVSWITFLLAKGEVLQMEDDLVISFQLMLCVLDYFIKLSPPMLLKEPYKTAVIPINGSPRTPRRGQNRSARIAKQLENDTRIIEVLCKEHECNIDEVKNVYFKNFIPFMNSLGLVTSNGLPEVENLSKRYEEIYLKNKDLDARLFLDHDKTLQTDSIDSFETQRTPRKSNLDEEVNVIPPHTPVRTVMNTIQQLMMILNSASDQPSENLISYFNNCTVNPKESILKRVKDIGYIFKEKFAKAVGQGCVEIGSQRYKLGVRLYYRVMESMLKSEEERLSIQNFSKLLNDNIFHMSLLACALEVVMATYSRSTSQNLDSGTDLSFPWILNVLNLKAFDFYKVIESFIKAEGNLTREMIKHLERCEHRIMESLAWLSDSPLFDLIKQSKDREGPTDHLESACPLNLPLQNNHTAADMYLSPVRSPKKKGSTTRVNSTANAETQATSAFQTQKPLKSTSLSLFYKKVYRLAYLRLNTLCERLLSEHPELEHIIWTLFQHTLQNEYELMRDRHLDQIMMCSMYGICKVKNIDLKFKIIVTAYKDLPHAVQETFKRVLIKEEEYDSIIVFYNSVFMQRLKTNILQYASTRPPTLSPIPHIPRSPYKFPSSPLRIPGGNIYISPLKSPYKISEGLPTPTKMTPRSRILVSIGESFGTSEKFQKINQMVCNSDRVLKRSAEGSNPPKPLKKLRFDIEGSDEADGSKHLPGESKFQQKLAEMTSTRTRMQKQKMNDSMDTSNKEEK

One experiment covers variants of B1. The settings on record: with chd4_human CHD4, Q14839.
Chain of chd4_human CHD4, Q14839 (Q14839 whole entry): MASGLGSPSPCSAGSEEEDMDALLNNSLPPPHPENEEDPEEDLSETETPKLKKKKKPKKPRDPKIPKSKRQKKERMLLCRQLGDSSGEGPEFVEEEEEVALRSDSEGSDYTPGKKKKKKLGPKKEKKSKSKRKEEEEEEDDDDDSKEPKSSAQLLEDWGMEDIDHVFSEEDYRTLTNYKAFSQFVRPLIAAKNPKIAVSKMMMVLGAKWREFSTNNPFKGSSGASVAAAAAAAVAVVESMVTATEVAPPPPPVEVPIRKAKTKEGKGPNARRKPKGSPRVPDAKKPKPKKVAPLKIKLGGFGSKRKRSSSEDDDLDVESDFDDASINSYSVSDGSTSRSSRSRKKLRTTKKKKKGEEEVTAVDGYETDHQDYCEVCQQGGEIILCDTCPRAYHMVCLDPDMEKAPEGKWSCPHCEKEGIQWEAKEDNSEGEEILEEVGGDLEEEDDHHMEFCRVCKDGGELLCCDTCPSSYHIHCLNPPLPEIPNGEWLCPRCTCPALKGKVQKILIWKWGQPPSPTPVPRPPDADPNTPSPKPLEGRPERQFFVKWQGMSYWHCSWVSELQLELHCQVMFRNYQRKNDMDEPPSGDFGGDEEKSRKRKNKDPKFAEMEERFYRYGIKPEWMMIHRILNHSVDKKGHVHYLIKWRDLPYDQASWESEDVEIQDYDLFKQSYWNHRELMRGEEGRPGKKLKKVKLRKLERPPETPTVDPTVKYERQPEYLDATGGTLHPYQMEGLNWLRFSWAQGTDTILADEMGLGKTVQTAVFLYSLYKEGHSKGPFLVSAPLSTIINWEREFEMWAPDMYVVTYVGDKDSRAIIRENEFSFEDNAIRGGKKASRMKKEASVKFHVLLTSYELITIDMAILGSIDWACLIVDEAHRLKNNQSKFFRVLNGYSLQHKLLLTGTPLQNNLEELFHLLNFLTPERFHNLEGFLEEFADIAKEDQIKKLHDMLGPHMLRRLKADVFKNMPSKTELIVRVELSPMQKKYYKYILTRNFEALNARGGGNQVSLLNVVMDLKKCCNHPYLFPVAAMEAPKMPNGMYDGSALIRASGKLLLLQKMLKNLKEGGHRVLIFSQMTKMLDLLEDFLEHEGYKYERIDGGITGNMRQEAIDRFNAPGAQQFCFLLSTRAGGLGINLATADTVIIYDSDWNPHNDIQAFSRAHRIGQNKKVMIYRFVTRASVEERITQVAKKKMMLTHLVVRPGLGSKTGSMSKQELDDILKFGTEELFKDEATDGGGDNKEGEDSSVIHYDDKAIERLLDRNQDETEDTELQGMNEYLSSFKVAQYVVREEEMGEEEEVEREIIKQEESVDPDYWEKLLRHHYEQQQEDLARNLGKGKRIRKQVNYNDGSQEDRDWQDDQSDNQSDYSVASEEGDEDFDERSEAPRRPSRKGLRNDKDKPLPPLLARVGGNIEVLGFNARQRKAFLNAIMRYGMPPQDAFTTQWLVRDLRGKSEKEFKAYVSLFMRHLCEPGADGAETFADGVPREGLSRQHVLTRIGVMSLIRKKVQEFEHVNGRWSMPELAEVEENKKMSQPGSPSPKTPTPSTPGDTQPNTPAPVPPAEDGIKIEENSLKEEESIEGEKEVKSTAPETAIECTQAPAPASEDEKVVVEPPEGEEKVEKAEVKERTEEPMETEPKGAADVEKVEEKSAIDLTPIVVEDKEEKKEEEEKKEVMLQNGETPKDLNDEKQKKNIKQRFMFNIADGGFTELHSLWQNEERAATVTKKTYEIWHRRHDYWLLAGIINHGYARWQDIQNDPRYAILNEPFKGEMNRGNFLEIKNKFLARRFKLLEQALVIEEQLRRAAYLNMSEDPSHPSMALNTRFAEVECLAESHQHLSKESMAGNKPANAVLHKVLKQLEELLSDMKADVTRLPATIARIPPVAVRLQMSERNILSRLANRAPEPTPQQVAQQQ
As to L67R, the “effect of a mutation on the interaction” value is “decreasing interaction”.

In a further experiment the parent is B2. Conditions: with rb_human RB1, P06400.
Regarding L67R, the “effect of a mutation on the interaction” value is given as “decreasing interaction”.
